Assay results from US20120277286A1, “COMPOSITIONS AND METHODS FOR THE TREATMENT OR PREVENTION OF MITOCHONDRIAL DISEASES” (The Government of the USA, as represented by the Secretary, …, priority 2009, published 2012).

Columns and labels:
Format in all cases: cell-based
HeLa cells [1] = experiment: Parkin colocalization with mitochondria scored by confocal microscopy; settings: HeLa cells, 2 mM paraquat, 24 hours
Method: Cultured cells seeded in borosilicate chamber slides (Thermo Fisher Scientific) were transfected or cotransfected with YFP-Parkin, ECFP-Parkin, mCherry-Parkin, DsRed-Mito (Clontech Laboratories, Inc.), pcDNA3.1 (Invitrogen), vMIA, and/or Drp1K38A constructs using Fugene 6 (Roche). Parkin-myc was a gift from M. Cookson (National Institutes of Health, Bethesda, Md.). Cells were fixed 12-24 hours after transfection with 4% paraformaldehyde in PBS. Cells were stained with following primary antibodies: mouse monoclonal cytochrome c (BD), rabbit polyclonal Tom20 (Santa Cruz Biotechnology, Inc.), mouse monoclonal Parkin PRK8 (Santa Cruz Biotechnology, Inc.), rabbit polyclonal PMP70 (Invitrogen), and/or mouse monoclonal TRAP1 (Abcam); and with the following secondary antibodies: mouse and/or rabbit Alexa 488, 594, and 633 (Invitrogen). For assessment of mitochondrial membrane potential, cells were pulsed with 50 nM Mito-Tracker red (Invitrogen) for 15 min, washed, and incubated for an additional 10 minutes before fixation or imaging. For assessment of cell metabolic potential, cell nuclei were stained with Hoechst 33342 (Invitrogen).
Fixed cells and live cells in the FLIP assay were imaged using an inverted microscope (LSM510 Meta; Carl Zeiss, Inc.) with a 63×/1.4 oil DIC Plan Apo objective at 25° C. and 37° C., respectively. For the FLIP assay, a bleach region of interest (ROI) occupying approximately one eighth of the cell was positioned over a relatively mitochondria-free portion of the cytosol. Cells were alternately bleached (488 nm using a 30-mW argon laser at 75% power and 100% transmission for 150 iterations) and imaged (488 nm at 75% power and 2% transmission) for 10 minutes (—60 cycles over the length of the experiment). Two channel prebleach and postbleach images were obtained with 488 and 594 lasers to assess the position of mitochondria before and after bleaching. Circular ROIs with diameters of ˜1 and 5 μm, respectively, were placed over the mitochondria and cytosol of the target cell, and an ROI of 10 μm was placed over the control cell. Imaging of YFP-Parkin translocation in live HeLa cells was performed on a live cell imager system (UltraView LCI; PerkinElmer) at 35° C. with a 100×/1.45 α-Plan-Fluor objective.
Image contrast and brightness were adjusted in Photoshop (Adobe). Colocalization was assessed with line scans using MetaMorph (MDS Analytical Technologies). For analysis of mitochondrial membrane potential in cells, mitochondrial voxels in each image (the cytochrome c channel threshold was ≧400 au) were segregated into Parkin-positive (the YFP-Parkin channel threshold was ≧1,100 au) or Parkin-negative subsets, and MitoTracker intensity for each voxel was measured using Volocity software (Improvision). For each cell, the mean MitoTracker intensity per voxel was calculated for the Parkin-positive and Parkin-negative subsets. The difference in mean Mito-Tracker intensity between the Parkin-positive and Parkin-negative subsets was calculated using a paired t test. Western blotting HeLa cells stably expressing YFP-Parkin, HEK293 cells, and rat cortical neurons 2 days in vitro were harvested and fractionated as described previously (Karbowski et al., J. Cell Biol. 178: 71-84, 2007). Samples were run on SDS-PAGE and immunoblotted with the following antibodies: polyclonal rabbit anti-GFP (Invitrogen), mouse monoclonal anti-Parkin (PRK8), and mouse monoclonal anti-Porin 31HL (EMD).
(§1) Confocal microscopy of fixed samples, scoring of Parkin recruitment and Parkininduced mitophagy, and live cell imaging were performed as described previously (Narendra (2008) J Cell Biol 183: 795-803). Experiments in Mfn1/2 null cells were performed as described previously with minor modifications.
Confocal microscopy of fixed samples, scoring of Parkin recruitment and Parkin-induced mitophagy, and live cell imageing were performed as described previously (Narendra (2008) J Cell Biol 183: 795-803). […]

HeLa cells [2] = experiment: PINK1-YFP imaging and colocalization in HeLa cells; settings: 2 mM paraquat, 16 hours
Method: as §1
Confocal microscopy of fixed samples, scoring of Parkin recruitment and Parkin-induced mitophagy, and live cell imageing were performed as described previously (Narendra (2008) J Cell Biol 183: 795-803). Experiments in Mfn1/2 null cells were performed as described previously with minor modifications described in the supplemental methods (Narendra (2008) J Cell Biol 183: 795-803).

PINK1 = PINK1 cleavage pattern by immunoblotting (Examples 4 and 5); settings: HeLa; for levels of FL and/or ΔMTS-PINK1: absence of CCCP or MG132; for 52 kDa fragment of PINK1: absence of MG132 treatment
Method: PARL siRNA (5′-[…]-C′) were synthesized by Qiagen. In order to achieve efficient knockdown of PARL, cells were transfected twice over a period of 96 hrs. PINK1-V5/His was a gift from M. Cookson (National Institute of Health, Bethesda, Md.). For site-directed mutagenesis, primers were designed using Primer X, web-based mutagenic primer design program (http://www.bioinformatics.org/primerx/), and produced by Operon. 15 rounds of PCR reactions were performed using Phusion DNA polymerase (Finnzymes) and WT PINK1-YFP constructs as a template. Introduction of point mutations were confirmed by sequencing.
(§2) Cells were cultured in borosilicated chamber slides for imaging, 6-well plates for whole cell lysates, and 100 or 150 mm culture dish for subcellular fractionation. One day after seeding, cells were transfected with indicated constructs using Fugene HD (Roche) or Lipofectamine 2000 (Invitrogen) according to the manufacturer's guidelines.
For whole cell lysates, cells were washed twice with cold-PBS and then directly lysed with 1× sample buffer. For mitochondrial fraction, cells were fractionated as described previously (Narendra et al., 2008) and below, and then mitochondrial pellets were lysed with 1× sample buffer. 20 μg of proteins were separated on 4-12% Tris-glycine or Bis-Tris SDS-PAGE. The following antibodies were used: anti-PINK1 (Novus Biologicals), anti-PARL N-terminal (a gift from L. Pellegrini), anti-Tom20 (Santa Cruz Biotechnology, Inc.), anti-AIF (Sigma-Aldrich) and antiHtra2/Omi (R&D systems) polyclonal antibodies; anti-VDAC (Calbiochem), anti-Tubulin, anti-βactin (Sigma-Aldrich), anti-Hsp70 (Cell Signaling Technologies), anti-Tom20 (BD), anti-Tim23 and anti-cytochrome C (BD) monoclonal antibodies.

HeLa cells [3] = experiment: Mitochondrial translocation of Parkin by imaging (Examples 4 and 5); settings: HeLa cells or PINK1 KO cells, without CCCP
Method: as §2
For immunocytochemistry, cultured cells in borosilicated chamber slides were fixed with 4% paraformaldehyde in PBS (USB) and permeabilized with the indicated detergent. After 30 min blocking with 10% BSA in PBS, cells were stained with the following primary antibodies: antiTom20 polyclonal antibody (Santa Cruz Biotechnology, Inc.) and anti-cytochrome C monoclonal antibody (BD), or anti-Tom20 monoclonal antibody (BD) and anti-GFP polyclonal antibody (Invitrogen) and then with the following secondary antibodies: goat anti-mouse/rabbit IgG antibody conjugated with Alexa Fluor 594/647, respectively. In case of live cell imaging, cells were pulsed with 600 nM TMRE for 5 min to evaluate mitochondrial membrane potential or 10 nM Mitotracker Red for 30 min to see the mitochondrial morphology. Cells were imaged using an inverted microscope (LSM510 Meta; Carl Zeiss) with 63×/1.4 oil DIC Plan Apo objective. Image contrast and brightness were adjusted in LSM image browser (Carl Zeiss).

Row | Molecule | levels of FL and/or ΔMTS-PINK1 (PINK1) | mitochondrial translocation of Parkin induced by PINK1 mutant (HeLa cells [3]) | 52 kDa fragment of PINK1 (PINK1) | also measured
1 | C[n+]1ccc(-c2cc[n+](C)cc2)cc1 [paraquat, reference compound] | – | – | – | YFP-Parkin recruitment to mitochondria (HeLa cells [1]): recruited to depolarized mitochondria; YFP-Parkin recruitment to mitochondria (HeLa cells [1]; listed as Paraquat): triggers Parkin recruitment to mitochondria; average pearson coefficient PINK1-YFP / MTR (HeLa cells [2]): 0.26±0.13; average pearson coefficient PINK1-YFP / cytochrome c (HeLa cells [2]): 0.58±0.11
2 | G97F: PINK1-YFP transmembrane domain point mutant (protein, UniProt Q9BXM7 78-581, looked up, variant G97F, YFP fusion, PINK1-YFP transmembrane domain point mutant) Serine/threonine-protein …: AARLQRQFVVRAWGCAGPCFRAVFLAFGLGLGLIEEKQAESRRAVSACQEIQAIFTQKSKPGPDPLDTRRLQGFRLEEYLIGQSIGKGCSAAVYEATMPTLPQNLEVTKSTGLLPGRGPGTSAPGEGQERAPGAPAFPLAIKMMWNISAGSSSEAILNTMSQELVPASRVALAGEYGAVTYRKSKRGPKQLAPHPNIIRVLRAFTSSVPLLPGALVDYPDVLPSRLHPEGLGHGRTLFLVMKNYPCTLRQYLCVNTPSPRLAAMMLLQLLEGVDHLVQQGIAHRDLKSDNILVELDPDGCPWLVIADFGCCLADESIGLQLPFSSWYVDRGGNGCLMAPEVSTARPGPRAVIDYSKADAWAVGAIAYEIFGLVNPFYGQGKAHLESRSYQEAQLPALPESVPPDVRQLVRALLQREASKRPSARVAANVLHLSLWGEHILALKNLKLDKMVGWLLQQSAATLLANRLTEKCCVETKMKMLFLANLECETLCQAALLLCSWRAAL | dramatically increased levels | – | – | –
3 | G105W: PINK1-YFP transmembrane domain point mutant (protein, UniProt Q9BXM7 78-581, looked up, variant G105W, C-terminal YFP fusion, PINK1-YFP transmembrane domain point mutant) Serine/threonine-protein …: AARLQRQFVVRAWGCAGPCGRAVFLAFWLGLGLIEEKQAESRRAVSACQEIQAIFTQKSKPGPDPLDTRRLQGFRLEEYLIGQSIGKGCSAAVYEATMPTLPQNLEVTKSTGLLPGRGPGTSAPGEGQERAPGAPAFPLAIKMMWNISAGSSSEAILNTMSQELVPASRVALAGEYGAVTYRKSKRGPKQLAPHPNIIRVLRAFTSSVPLLPGALVDYPDVLPSRLHPEGLGHGRTLFLVMKNYPCTLRQYLCVNTPSPRLAAMMLLQLLEGVDHLVQQGIAHRDLKSDNILVELDPDGCPWLVIADFGCCLADESIGLQLPFSSWYVDRGGNGCLMAPEVSTARPGPRAVIDYSKADAWAVGAIAYEIFGLVNPFYGQGKAHLESRSYQEAQLPALPESVPPDVRQLVRALLQREASKRPSARVAANVLHLSLWGEHILALKNLKLDKMVGWLLQQSAATLLANRLTEKCCVETKMKMLFLANLECETLCQAALLLCSWRAAL | – | did not recruit Parkin | stabilize the 52 kDa fragment | –
4 | A103W: PINK1-YFP transmembrane domain point mutant (protein, UniProt Q9BXM7 78-581, looked up, variant A103W, C-terminal YFP fusion, PINK1-YFP transmembrane domain point mutant) Serine/threonine-protein …: AARLQRQFVVRAWGCAGPCGRAVFLWFGLGLGLIEEKQAESRRAVSACQEIQAIFTQKSKPGPDPLDTRRLQGFRLEEYLIGQSIGKGCSAAVYEATMPTLPQNLEVTKSTGLLPGRGPGTSAPGEGQERAPGAPAFPLAIKMMWNISAGSSSEAILNTMSQELVPASRVALAGEYGAVTYRKSKRGPKQLAPHPNIIRVLRAFTSSVPLLPGALVDYPDVLPSRLHPEGLGHGRTLFLVMKNYPCTLRQYLCVNTPSPRLAAMMLLQLLEGVDHLVQQGIAHRDLKSDNILVELDPDGCPWLVIADFGCCLADESIGLQLPFSSWYVDRGGNGCLMAPEVSTARPGPRAVIDYSKADAWAVGAIAYEIFGLVNPFYGQGKAHLESRSYQEAQLPALPESVPPDVRQLVRALLQREASKRPSARVAANVLHLSLWGEHILALKNLKLDKMVGWLLQQSAATLLANRLTEKCCVETKMKMLFLANLECETLCQAALLLCSWRAAL | – | did not recruit Parkin | stabilize the 52 kDa fragment | –
5 | R98F: PINK1-YFP transmembrane domain point mutant (protein, UniProt Q9BXM7 78-581, looked up, variant R98F, YFP fusion, PINK1-YFP transmembrane domain point mutant) Serine/threonine-protein …: AARLQRQFVVRAWGCAGPCGFAVFLAFGLGLGLIEEKQAESRRAVSACQEIQAIFTQKSKPGPDPLDTRRLQGFRLEEYLIGQSIGKGCSAAVYEATMPTLPQNLEVTKSTGLLPGRGPGTSAPGEGQERAPGAPAFPLAIKMMWNISAGSSSEAILNTMSQELVPASRVALAGEYGAVTYRKSKRGPKQLAPHPNIIRVLRAFTSSVPLLPGALVDYPDVLPSRLHPEGLGHGRTLFLVMKNYPCTLRQYLCVNTPSPRLAAMMLLQLLEGVDHLVQQGIAHRDLKSDNILVELDPDGCPWLVIADFGCCLADESIGLQLPFSSWYVDRGGNGCLMAPEVSTARPGPRAVIDYSKADAWAVGAIAYEIFGLVNPFYGQGKAHLESRSYQEAQLPALPESVPPDVRQLVRALLQREASKRPSARVAANVLHLSLWGEHILALKNLKLDKMVGWLLQQSAATLLANRLTEKCCVETKMKMLFLANLECETLCQAALLLCSWRAAL | dramatically increased levels | did not induce | – | –
